# Data published in PMC11286566.
# What was measured:
# [1] = molecular target: Catcher-Ferritin (Catcher of the isopeptide linkage system, flexible linker, Ferritin NP subunit); test: SDS-PAGE densitometry of the covalent conjugate; catcher-Ferritin and gE-Tag mixed at a 1:6 molar ratio, 24 h at 4°C; uncoupled gE-Tag removed by SEC (Superdex 200 Increase, 20 mM Tris-HCl, 25% sucrose w/v, pH 7.4); coupling efficiency by densitometry of reduced SDS-PAGE; isopeptide bond between Tag and Catcher
# [2] = molecular target: Catcher-AP205 (Catcher of the isopeptide linkage system, flexible linker, bacteriophage AP205 VLP subunit) (bacteriophage AP205); test: SDS-PAGE densitometry of the covalent conjugate; catcher-AP205 and gE-Tag mixed at a 1:2 molar ratio, 24 h at 22°C, then dialysed into 50 mM glycine, 25 mM sodium citrate, 0.1% Tween 20, pH 6.2; coupling efficiency by densitometry of reduced SDS-PAGE; isopeptide bond between Tag and Catcher
substance,measurement,setting,value
gE-Tag (extracellular domain of VZV glycoprotein E with a C-terminal Tag of the isopeptide linkage system) (from UniProt P09259 31-544),conjugation efficiency,[1],> 70%
same,conjugation efficiency,[2],> 70%
